Measurements: patent publication US11278600B2, “Human alpha-galactosidase variants” (Codexis, Inc., priority 2014, dated 2022)
Positions count from the first letter of the chain named.

B1: 44 (protein)
chain: LDNGLARTPTMGWLHWERFMCNLDCQEEPDSCISEKLFMEMAELMVSEGWKDAGYEYLCIDDCWMAPQRDSEGRLQADPQRFPHGIRQLANYVHSKGLKLGIYADVGNKTCAGFPGSFGYYDIDAQTFADWGVDLLKFDGCYCDSLENLADGYKHMSLALNRTGRSIVYSCEWPLYMWPFQKPNYTEIRQYCNHWRNFADIDDSWKSIKSILDWTSFNQERIVDVAGPGGWNDPDMLVIGNFGLSWNQQVTQMALWAIMAAPLFMSNDLRHISPQAKALLQDKDVIAINQDPLGKQGYQLRQGDNFEVWERPLSGLAWAVAMINRQEIGGPRSYTIAVASLGKGVACNPACFITQLLPVKRKLGFYEWTSRLRSHINPTGTVLLQLKNTMQMSKDLLL
modifications: Synthetic Polypeptide sequence of Variant No. 44 of mature Human GLA
B2: 53 (protein)
chain: B1 chain with F217R, K387E
modifications: Synthetic Polypeptide sequence of Variant No. 53 of mature Human GLA
B3: 48 (protein)
chain: B1 chain with E40D, K387E
modifications: Synthetic Polypeptide sequence of Variant No. 48 of mature Human GLA
B4: 45 (protein)
chain: B1 chain with K387Q
modifications: Synthetic Polypeptide sequence of Variant No. 45 of mature Human GLA
B5: 46 (protein)
chain: B1 chain with K387R
modifications: Synthetic Polypeptide sequence of Variant No. 46 of mature Human GLA
B6: 54 (protein)
chain: B1 chain with F352I, K387E
modifications: Synthetic Polypeptide sequence of Variant No. 54 of mature Human GLA
B7: 51 (protein)
chain: B1 chain with F198S, K387E
modifications: Synthetic Polypeptide sequence of Variant No. 51 of mature Human GLA
B8: 49 (protein)
chain: B1 chain with F180R, K387E
modifications: Synthetic Polypeptide sequence of Variant No. 49 of mature Human GLA
B9: 52 (protein)
chain: B1 chain with F217D, K387E
modifications: Synthetic Polypeptide sequence of Variant No. 52 of mature Human GLA
B10: 50 (protein)
chain: B1 chain with F180S, K387E
modifications: Synthetic Polypeptide sequence of Variant No. 50 of mature Human GLA
B11: 47 (protein)
chain: B1 chain with K387T
modifications: Synthetic Polypeptide sequence of Variant No. 47 of mature Human GLA

What was measured:
Assay type in all cases: biochemical
[1] = HTP-analysis of supernatants pretreated with base (MUGal hydrolysis); conditions: challenge at pH 7.1; activity of the variant/activity of WT GLA (SEQ ID NO: 5); yeast supernatant
Method in brief: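 GLA variants were secreted by transformed INVSc1 yeast grown 66-84 h at 30° C. Supernatants were exposed to neutral-to-basic buffers (pH 7.0-9.7) at 37° C for 1-18 h, then assayed with MUGal in acidic citrate/McIlvaine buffer, with fluorescence read after quenching.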

[2] = HTP-analysis of yeast culture supernatants, no challenge (MUGal hydrolysis); conditions: activity of the variant/activity of WT GLA (SEQ ID NO: 5), yeast supernatant
Method in brief: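 GLA variants expressed in yeast INVSc1, secreted into SD-Ura broth over 66-84 h at 30° C; clarified supernatants tested without challenge. Supernatant mixed with McIlvaine buffer pH 4.8 and 2 mM MUGal (citrate/KCl, pH 4.6), 37° C for 30-180 min, carbonate-quenched, fluorescence Ex 355/Em 448 nm.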

[3] = HTP-analysis of supernatants pretreated with acid (MUGal hydrolysis); conditions: challenge at pH 4.2; activity of the variant/activity of WT GLA (SEQ ID NO: 5); yeast supernatant
Method in brief: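 Fluorescence of MUGal hydrolysis (Ex. 355 nm, Em. 448 nm) is read after sodium carbonate quench. The enzyme source is INVSc1 yeast culture supernatant, first exposed to pH 3.3-4.3 McIlvaine buffer at 37° C. for 1-3 h, then reacted at pH 4.8 for 30-180 minutes.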

Row | Molecule | Relative Activity of GLA Variants After Challenge at pH 7.1 [1] | Relative Activity of GLA Variants After No Challenge (NC) [2] | Relative Activity of GLA Variants After Challenge at pH 4.2 [3]
1 | B1 | + (+ = 0.5 to 1.5 relative activity over WT GLA (SEQ ID NO: 5)) | + (+ = 0.5 to 1.5 relative activity over WT GLA (SEQ ID NO: 5)) | ++ (++ = >1.5 to 2.5 relative activity over WT GLA (SEQ ID NO: 5))
2 | B2 | ++ (++ = >1.5 to 2.5 relative activity over WT GLA (SEQ ID NO: 5)) | + (+ = 0.5 to 1.5 relative activity over WT GLA (SEQ ID NO: 5)) | ++ (++ = >1.5 to 2.5 relative activity over WT GLA (SEQ ID NO: 5))
3 | B3 | + (+ = 0.5 to 1.5 relative activity over WT GLA (SEQ ID NO: 5)) | + (+ = 0.5 to 1.5 relative activity over WT GLA (SEQ ID NO: 5)) | + (+ = 0.5 to 1.5 relative activity over WT GLA (SEQ ID NO: 5))
4 | B4 | ++ (++ = >1.5 to 2.5 relative activity over WT GLA (SEQ ID NO: 5)) | ++ (++ = >1.5 to 2.5 relative activity over WT GLA (SEQ ID NO: 5)) | ++ (++ = >1.5 to 2.5 relative activity over WT GLA (SEQ ID NO: 5))
5 | B5 | + (+ = 0.5 to 1.5 relative activity over WT GLA (SEQ ID NO: 5)) | + (+ = 0.5 to 1.5 relative activity over WT GLA (SEQ ID NO: 5)) | +++ (+++ = >2.5 relative activity over WT GLA (SEQ ID NO: 5))
6 | B6 | + (+ = 0.5 to 1.5 relative activity over WT GLA (SEQ ID NO: 5)) | + (+ = 0.5 to 1.5 relative activity over WT GLA (SEQ ID NO: 5)) | + (+ = 0.5 to 1.5 relative activity over WT GLA (SEQ ID NO: 5))
7 | B7 | + (+ = 0.5 to 1.5 relative activity over WT GLA (SEQ ID NO: 5)) | ++ (++ = >1.5 to 2.5 relative activity over WT GLA (SEQ ID NO: 5)) | ++ (++ = >1.5 to 2.5 relative activity over WT GLA (SEQ ID NO: 5))
8 | B8 | + (+ = 0.5 to 1.5 relative activity over WT GLA (SEQ ID NO: 5)) | + (+ = 0.5 to 1.5 relative activity over WT GLA (SEQ ID NO: 5)) | + (+ = 0.5 to 1.5 relative activity over WT GLA (SEQ ID NO: 5))
9 | B9 | ++ (++ = >1.5 to 2.5 relative activity over WT GLA (SEQ ID NO: 5)) | ++ (++ = >1.5 to 2.5 relative activity over WT GLA (SEQ ID NO: 5)) | + (+ = 0.5 to 1.5 relative activity over WT GLA (SEQ ID NO: 5))
10 | B10 | ++ (++ = >1.5 to 2.5 relative activity over WT GLA (SEQ ID NO: 5)) | ++ (++ = >1.5 to 2.5 relative activity over WT GLA (SEQ ID NO: 5)) | ++ (++ = >1.5 to 2.5 relative activity over WT GLA (SEQ ID NO: 5))
11 | B11 | + (+ = 0.5 to 1.5 relative activity over WT GLA (SEQ ID NO: 5)) | + (+ = 0.5 to 1.5 relative activity over WT GLA (SEQ ID NO: 5)) | ++ (++ = >1.5 to 2.5 relative activity over WT GLA (SEQ ID NO: 5))
